B1: mouse N4BP1 (613-893) in cell lysate (dimerization test of Fig. 2B) (domain or fragment)
chain: ADLKHIVIDGSNVAITHGLKKFFSCRGIAIAVEYFWKLGNRNITVFVPQWRTRRDPNITEQHFLTQLQELGILSLTPARMVFGERIASHDDRFLLHLADKTGGIIVTNDNFREFVTESVSWREIITKRLLQYTFVGDIFMVPDDPLGRNGPRLEEFLRKEAFLRHMQPLLNALPSVGTFDPGFRSPSTQVANNSHQPPPRIQTSSSPWLPQQSHFTALATLPSMQQNPPLPAQRSSAETSELREALLKIFPDSEQKLKIDQILAAHPYMKDLNALSALVLD

Columns and labels:
M1-linked diUb = M1-linked diUb (UniProt P0CG48); test: ITC
monoUb = monoUb (UniProt P0CG48 1-76); test: ITC
SEC = molecular target: the molecule itself; test: SEC
[1] = molecular target: the molecule itself; test: Western blot of lysate under non-denaturing conditions

| Binder | binding result (M1-linked diUb) | binding result (monoUb) | binding result (SEC) | stoichiometry N [1] |
| --- | --- | --- | --- | --- |
| ETSELREALLKIFPDSEQKLKIDQILAAHPYMKDLNALSALVLD (domain or fragment) [isolated N4BP1 CUE domain (residues 850-893) used for ITC, NMR and analytical gel filtration] | binds | binds | binds | – |
| B1 | – | – | – | 2 |

From publication doi:10.1101/2021.11.02.466974 (bioRxiv, 2021)
